This passage reports Kd results from the FLAb antibody collection (doi:10.1101/2023.12.08.570889).

Residue numbers refer to the chain shown, from its start.

For the test, the target named is TSLP, Q969D9. Nature of the test: Kd (SPR).

B1: unnamed (protein)
chain 1: QMQLVESGGGVVQPGRSLRLSCAASGFTFRTYGMHWVRQAPGKGLEWVAVIWYDGSNKHYADSVKGRFTITRDNSKNTLNLQMNSLRAEDTAVYYCARAPRYDWLYEAFDVWGQGTMVTVSS
chain 2: SYVLTQPPSVSVAPGQTARITCGGNNLGSKSVHWYQQKPGQAPVLVVYDDSDRPSWIPERFSGSNSGNTATLTISRGEAGDEADYYCQVWDSSSDHVVFGGGTKLTVL
As usually defined, the Kd is the concentration at which binding is half-saturated. B1 gave a Kd of 83 nM.

B2: unnamed (protein)
chain 1: B1 chain 1 with W104D
chain 2: B1 chain 2
B2 showed a dissociation constant (Kd) of 122 nM.

B3: unnamed (protein)
chain 1: B1 chain 1 with A99S, W104D, L105Y, Y106L
chain 2: B1 chain 2
As for B3, the Kd was 228 nM.

B4: unnamed (protein)
chain 1: B1 chain 1 with A99S, D103Y, W104D, L105Y, Y106W
chain 2: B1 chain 2
B4 returned a Kd of 72.3 nM.

B5: unnamed (protein)
chain 1: B1 chain 1 with W104E, L105A
chain 2: B1 chain 2
For B5, the Kd came out at 103 nM.

B6: unnamed (protein)
chain 1: B1 chain 1 with W104D, L105T
chain 2: B1 chain 2
For B6, the Kd came to 86.2 nM.

B7: unnamed (protein)
chain 1: B1 chain 1 with A99S, L105Y, Y106L
chain 2: B1 chain 2
Molecule B7 registered a dissociation constant (Kd) of 335 nM.

B8: unnamed (protein)
chain 1: B1 chain 1 with W104Y, L105Y, Y106V
chain 2: B1 chain 2
In turn, B8 had a dissociation constant Kd of 109 nM.

B9: unnamed (protein)
chain 1: B1 chain 1 with L105E
chain 2: B1 chain 2
Turning to B9, the Kd was 102 nM.

B10: unnamed (protein)
chain 1: B1 chain 1 with W104D, L105R
chain 2: B1 chain 2
On to B10, for which the Kd turned out to be 241 nM.
